Results taken from the Immune Epitope Database (IEDB).

Columns and labels:
HLA-A*33:01 = assay: IEDB peptide-MHC binding, purified MHC/competitive/radioactivity; filed as Kd, often an IC50 or EC50 that approximates it; ≥ and ≤ were set here for values at or beyond the usual limits of such assays; settings: source organism: Dengue virus 4 Philippines/H241/1956
HLA-A*32:01 = assay: as above
HLA-A*31:01 = assay: as above; settings: source organism: Dengue virus 4 Philippines/H241/1956
HLA-A*24:02 = assay: as above
HLA-A*01:01 = assay: as above
HLA-A*23:01 = assay: as above
HLA-A*26:01 = assay: as above
HLA-A*30:02 = assay: as above
HLA-A*29:02 = assay: as above
HLA-A*69:01 = assay: IEDB peptide-MHC binding, purified MHC/direct/fluorescence; filed as Kd, often an IC50 or EC50 that approximates it; ≥ and ≤ were set here for values at or beyond the usual limits of such assays
HLA-A*02:01 [1] = assay: as above
HLA-B*15:01 = assay: as above
HLA-A*02:01 [2] = assay: IEDB peptide-MHC binding, purified MHC/competitive/fluorescence; ≥ and ≤ were set here for values at or beyond the usual limits of such assays
HLA-B*07:02 = assay: IEDB peptide-MHC binding, purified MHC/direct/fluorescence; filed as Kd, often an IC50 or EC50 that approximates it; ≥ and ≤ were set here for values at or beyond the usual limits of such assays; settings: source organism: Haemophilus influenzae
HLA-A*03:01 = assay: as above; settings: source organism: Pasteurella multocida
HLA-B*58:01 = assay: as above; settings: source organism: Pasteurella multocida
[3] = source organism: Influenza A virus (A/Wilson-Smith/1933(H1N1))
[4] = source organism: Dengue virus 1 Singapore/S275/1990
[5] = source organism: Rickettsia conorii
[6] = source organism: SARS coronavirus Tor2
[7] = source organism: Vaccinia virus WR
[8] = source organism: Mammarenavirus whitewaterense
[9] = source organism: Dengue virus 3 Martinique/1243/1999
[10] = source organism: Zaire ebolavirus
[11] = source organism: Lassa virus Josiah
[12] = source organism: Mammarenavirus guanaritoense
[13] = source organism: Haemophilus influenzae
[14] = source organism: Mammarenavirus brazilense
[15] = source organism: Pasteurella multocida

Work on MFGGVSWMVR yielded a Kd (HLA-A*33:01) of 0.00459 µM, a Kd (HLA-A*32:01; source organism: Dengue virus 4 Philippines/H241/1956) of 0.952 µM and a Kd (HLA-A*31:01) of 0.0172 µM.

In the case of DQHGRMNYYW, the Kd (HLA-A*24:02; [3]) is reported as 1.47 µM, the Kd (HLA-A*01:01; [3]) is reported as ≥ 70.4 µM and the Kd (HLA-A*23:01; [3]) is reported as 1.11 µM. For the same sequence, the Kd (HLA-A*26:01; [3]) was 0.661 µM, the Kd (HLA-A*30:02; [3]) was ≥ 69.8 µM and the Kd (HLA-A*29:02; [3]) was 2.17 µM.

MEVTARWLWG was tested, and the Kd (HLA-A*32:01; [4]) was 3.72 µM.

In the case of YFSDVSAPV, the Kd (HLA-A*69:01; [5]) is reported as 0.041 µM, the Kd (HLA-A*02:01 [1]; [5]) is reported as 0.0279 µM and the Kd (HLA-B*15:01; [5]) is reported as 0.705 µM.

HTLSIHDGY was tested, and the Kd (HLA-A*24:02; [6]) was ≥ 77.6 µM, the Kd (HLA-A*01:01; [6]) was 1.5 µM and the Kd (HLA-A*23:01; [6]) was ≥ 77.8 µM. For the same sequence, the Kd (HLA-A*26:01; [6]) was 0.016 µM, the Kd (HLA-A*30:02; [6]) was 0.000411 µM and the Kd (HLA-A*29:02; [6]) was 0.00179 µM.

TMFKIVYSL gave a Kd (HLA-A*32:01; [7]) of 0.000915 µM.

For PYVPMPCMI, the Kd (HLA-A*24:02; [8]) was 0.0574 µM, the Kd (HLA-A*23:01; [8]) was 0.0417 µM and the Kd (HLA-A*29:02; [8]) was ≥ 60.7 µM.

In the case of HTILYNNTI, the Kd (HLA-A*32:01; [7]) is reported as 0.00188 µM.

In the case of TAIAGAWENG, the Kd (HLA-A*32:01; [9]) is reported as ≥ 60.5 µM.

With ELDHLGLDD the IC50 (HLA-A*02:01 [2]; [10]) was ≥ 513 µM.

With KCWLVSNGSY the Kd (HLA-A*24:02; [11]) was ≥ 70.3 µM, the Kd (HLA-A*01:01; [11]) was 11.5 µM and the Kd (HLA-A*23:01; [11]) was ≥ 70 µM. For the same sequence, the Kd (HLA-A*26:01; [11]) was ≥ 69.7 µM, the Kd (HLA-A*30:02; [11]) was 0.0114 µM and the Kd (HLA-A*29:02; [11]) was 1.53 µM.

DLAAGVDVV was tested, and the Kd (HLA-A*69:01; [5]) was 1.46 µM and the Kd (HLA-A*02:01 [1]; [5]) was 3.24 µM.

With MLNYVDYNI the Kd (HLA-A*32:01; [7]) was 0.00159 µM.

With GTFLCANEY the Kd (HLA-A*24:02; [6]) was 11.4 µM, the Kd (HLA-A*01:01; [6]) was 0.0974 µM and the Kd (HLA-A*23:01; [6]) was ≥ 36.4 µM. It also gave a Kd (HLA-A*26:01; [6]) of 0.262 µM, a Kd (HLA-A*30:02; [6]) of 0.000406 µM and a Kd (HLA-A*29:02; [6]) of 0.00383 µM.

Work on MGLDKGWPIS yielded a Kd (HLA-A*32:01; source organism: Dengue virus 1 Brazil/97-11/1997) of 10.1 µM.

With LDISEATQV the IC50 (HLA-A*02:01 [2]; [10]) was ≥ 72.6 µM.

For GYRFFNKTL, the Kd (HLA-A*24:02; [12]) was 1.19 µM, the Kd (HLA-A*23:01; [12]) was 0.21 µM and the Kd (HLA-A*29:02; [12]) was 3.59 µM.

AILGVLATL showed a Kd (HLA-A*69:01; [13]) of 0.238 µM, a Kd (HLA-A*02:01 [1]; [13]) of 0.316 µM and a Kd (HLA-B*15:01; [13]) of 18.5 µM. For the same sequence, the Kd (HLA-B*07:02) was 12.7 µM.

For TERSASGGVY, the Kd (HLA-A*24:02; [14]) was ≥ 70.3 µM, the Kd (HLA-A*01:01; [14]) was 1.71 µM and the Kd (HLA-A*23:01; [14]) was ≥ 44.9 µM. For the same sequence, the Kd (HLA-A*26:01; [14]) was ≥ 54.6 µM, the Kd (HLA-A*30:02; [14]) was 1.01 µM and the Kd (HLA-A*29:02; [14]) was ≥ 55.5 µM.

SNAKCIEYV gave an IC50 (HLA-A*02:01 [2]; source organism: Vaccinia virus Copenhagen) of 53.6 µM.

KSTDFLDPA showed an IC50 (HLA-A*02:01 [2]; [10]) of 5.05 µM.

For PVSAMVRMY, the Kd (HLA-A*24:02; [6]) was ≥ 40.9 µM, the Kd (HLA-A*01:01; [6]) was 11.4 µM and the Kd (HLA-A*23:01; [6]) was ≥ 39.2 µM. The Kd (HLA-A*26:01; [6]) was ≥ 36.7 µM, the Kd (HLA-A*30:02; [6]) was 9.13 µM and the Kd (HLA-A*29:02; [6]) was 2.73 µM.

With GTFKKSGAI the Kd (HLA-A*32:01; [9]) was 4.93 µM.

ILYVSCNPA was tested, and the Kd (HLA-A*69:01; [15]) was 0.572 µM, the Kd (HLA-A*03:01) was 0.403 µM and the Kd (HLA-B*58:01) was 0.572 µM. For the same sequence, the Kd (HLA-B*15:01; [15]) was 0.748 µM.

EFSSNVANY was tested, and the Kd (HLA-A*24:02; [6]) was ≥ 32.2 µM, the Kd (HLA-A*01:01; [6]) was 11.2 µM and the Kd (HLA-A*23:01; [6]) was ≥ 77.8 µM. The Kd (HLA-A*26:01; [6]) was 2.9 µM, the Kd (HLA-A*30:02; [6]) was 0.828 µM and the Kd (HLA-A*29:02; [6]) was 0.703 µM.

LAKLTEAIT showed an IC50 (HLA-A*02:01 [2]; [10]) of 68.4 µM.

For VNPGTYVYF, the IC50 (HLA-A*02:01 [2]; source organism: Variola virus) was ≥ 186 µM.

Sequence QLLLMRTSW has a Kd (HLA-A*32:01; [9]) of 0.0104 µM.

For FTNAGIVAY, the Kd (HLA-A*32:01; [7]) was 0.149 µM.

With IFWRNTNPI the Kd (HLA-A*24:02; [6]) was ≥ 31.5 µM, the Kd (HLA-A*01:01; [6]) was ≥ 78.1 µM and the Kd (HLA-A*23:01; [6]) was 9.15 µM. For the same sequence, the Kd (HLA-A*26:01; [6]) was ≥ 77.9 µM, the Kd (HLA-A*30:02; [6]) was ≥ 78.9 µM and the Kd (HLA-A*29:02; [6]) was ≥ 35.2 µM.

For VAEMDGIQY, the Kd (HLA-A*24:02; [6]) was ≥ 77.6 µM, the Kd (HLA-A*01:01; [6]) was 0.0308 µM and the Kd (HLA-A*23:01; [6]) was ≥ 77.8 µM. For the same sequence, the Kd (HLA-A*26:01; [6]) was 1.27 µM, the Kd (HLA-A*30:02; [6]) was 0.0195 µM and the Kd (HLA-A*29:02; [6]) was 0.0583 µM.

For VYMPASWVM, the Kd (HLA-A*24:02; [6]) was 12.6 µM, the Kd (HLA-A*01:01; [6]) was ≥ 78.1 µM and the Kd (HLA-A*23:01; [6]) was 5.42 µM. The Kd (HLA-A*26:01; [6]) was ≥ 77.9 µM, the Kd (HLA-A*30:02; [6]) was ≥ 20.9 µM and the Kd (HLA-A*29:02; [6]) was 14.7 µM.

For KGEDGCWYGM, the Kd (HLA-A*32:01; [4]) was 1.88 µM.

For SYKIGHHVEL, the Kd (HLA-A*24:02; [8]) was 12.9 µM, the Kd (HLA-A*23:01; [8]) was 15.9 µM and the Kd (HLA-A*29:02; [8]) was ≥ 56.9 µM.

TVATSRTLSY was tested, and the Kd (HLA-A*24:02; [6]) was ≥ 70.3 µM, the Kd (HLA-A*01:01; [6]) was 0.341 µM and the Kd (HLA-A*23:01; [6]) was ≥ 70 µM. For the same sequence, the Kd (HLA-A*26:01; [6]) was 0.0779 µM, the Kd (HLA-A*30:02; [6]) was 0.822 µM and the Kd (HLA-A*29:02; [6]) was 0.1 µM.

RGVNFAEGV was tested, and the IC50 (HLA-A*02:01 [2]; source organism: Sudan ebolavirus) was 32.9 µM.
